Reference: publication PMC3315329

Legend:
[1] = target: 40S ribosomal subunits of asc1Δ cells (lacking ASC1) (S. cerevisiae (endogenous in yeast)) (UniProt P32905); experiment: cross-linking + co-sedimentation
[2] = target: 40S ribosomal subunits (wild type) (S. cerevisiae (endogenous in yeast)) (UniProt P38011); experiment: cross-linking + co-sedimentation
UniProt P38011, sequence (P38011 whole entry, looked up, tested part not stated): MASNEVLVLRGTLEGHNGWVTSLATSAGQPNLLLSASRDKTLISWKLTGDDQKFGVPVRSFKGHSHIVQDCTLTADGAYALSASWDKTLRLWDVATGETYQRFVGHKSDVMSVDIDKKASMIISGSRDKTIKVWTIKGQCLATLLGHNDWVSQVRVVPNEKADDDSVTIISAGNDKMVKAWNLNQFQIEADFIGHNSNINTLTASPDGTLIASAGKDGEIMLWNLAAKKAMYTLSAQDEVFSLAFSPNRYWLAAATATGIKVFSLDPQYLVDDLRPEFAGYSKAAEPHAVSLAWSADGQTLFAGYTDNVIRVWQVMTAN

UniProt P32905, sequence (P32905 whole entry, looked up, stated change not applied, tested part not stated): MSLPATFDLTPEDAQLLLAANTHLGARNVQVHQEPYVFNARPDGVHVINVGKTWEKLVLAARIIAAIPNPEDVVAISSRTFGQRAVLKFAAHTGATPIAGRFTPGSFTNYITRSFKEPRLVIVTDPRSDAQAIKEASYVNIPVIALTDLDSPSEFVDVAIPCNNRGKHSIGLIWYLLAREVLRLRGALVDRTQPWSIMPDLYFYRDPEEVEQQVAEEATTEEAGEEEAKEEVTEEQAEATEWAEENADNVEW

Row | reduction of the 40S-associated amount relative to wt [1] | reduction of the 40S-bound amount in nip1-Δ60 cells relative to wt [2] | reduction of the eIF/40S ratio in nip1-743A752 cells relative to wt [2] | Substance
1 | 50% | – | – | eIF2 (from UniProt P20459 1-304; P09064 1-285; P32481 1-527) (complex)
2 | 50% | 20% | 60% | eIF5 (from UniProt P38431 1-405) (natural protein)
